These results are taken from paper PMC3060920, “Structural Analysis of a Repetitive Protein Sequence Motif in Strepsirrhine Primate Amelogenin” (PLoS ONE, 2011).

This data set concerns the molecule itself. The data set is described as follows: dynamic light scattering; self-assembly into nanospheres; 0.4 mg/mL, pH 8, 25 mM Tris buffer, 22°C; Rayleigh sphere model, sphere-equivalent hydrodynamic radii.

B1: rp(H)M180, recombinant His-tagged mouse amelogenin M180 (natural protein, UniProt P63277-1 17-196, looked up)
chain: MPLPPHPGSPGYINLSYEVLTPLKWYQSMIRQPYPSYGYEPMGGWLHHQIIPVLSQQHPPSHTLQPHHHLPVVPAQQPVAPQQPMMPVPGHHSMTPTQHHQPNIPPSAQQPFQQPFQPQAIPPQSHQPMQPQSPLHPMQPLAPQPPLPPLFSMQPLSPILPELPLEAWPATDKTKREEVD
notes: Assembles into nanospheres at pH 8; also called wild type mouse amelogenin; mAmelx; source: E. coli (pQE30), purified (Ni-NTA); not shown: poly-histidine, N-terminal, kept
As for B1, the binding result is “binds”.
